Results taken from patent publication US12012457 (SYNTHEKINE, dated 2024).

T1: extracellular domain of mouse IL23R (mIL23R ECD) (mouse, UniProt Q8K4B4 24-374)
T1 construct: also called mIL-23 ECD antigen
T1 sequence: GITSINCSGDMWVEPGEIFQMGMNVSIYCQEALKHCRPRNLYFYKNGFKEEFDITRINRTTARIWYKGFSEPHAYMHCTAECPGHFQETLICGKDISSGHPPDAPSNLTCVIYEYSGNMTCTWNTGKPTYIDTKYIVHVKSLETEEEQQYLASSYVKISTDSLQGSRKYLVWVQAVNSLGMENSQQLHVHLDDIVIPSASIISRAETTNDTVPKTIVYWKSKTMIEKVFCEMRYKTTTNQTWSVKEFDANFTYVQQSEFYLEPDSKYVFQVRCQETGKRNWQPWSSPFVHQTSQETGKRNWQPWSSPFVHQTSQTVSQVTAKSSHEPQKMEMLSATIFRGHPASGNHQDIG


Target: T1, extracellular domain of mouse IL23R …
Test: periplasmic extract ELISA (PE-ELISA), 96-well plate, colorimetric

Binder	binding result
mIL23R VHH6 (VHH) VHH: QVQLQESGGGSVQAGGSLRLSCAASGYTSGNYWMGWFRQAPGKEREGVATLWTGGASTFYGDSVKGRFTISRDNFKNTLYLQMNSLKVEDTAMYYCAADPALRLGANILRPAEYKYWGQGTQVTVSS	binds
mIL23R VHH26 (VHH) VHH: QVQLQESGGGSVQAGGSLRLSCAASGYTFCMAWFRQAPGKEREGVARFYTRDGYTYYSDSVKGRFTISQNNAKNTLYLQMNSLKSEDTAMYYCAADLTRCSSNKNDFRYWGQGTQVTVSS	binds
mIL23R VHH43 (VHH) VHH: QVQLQESGGGSVQAGGSLRLSCAASGYTFCMAWFRQAPGKEREGVARFYTRDGYTYYSDSVKGRFTISQDNAKNTLYLQMNSLKSEDTAMYYCAADLTRCSSNKNDFRYWGQGTQVTVSS	binds
mIL23R VHH24 (VHH) VHH: QVQLQESGGGSVQAGGSLRLSCAVSGYTFCMAWFRQAPGKEREGVARFYTRDGYTYYSGSVKGRFTISQNNAKNTLYLQMNSLKSEDTAMYYCAADLTRCSSNKNDFRYWGQGTQVTVSS	binds
mIL23R VHH22 (VHH) VHH: QVQLQESGGGSVQAGGSLRLSCAASGYTFCMAWFRQAPGKEREGVARFYTRDSYTYYSDSVKGRFTISQNNAKNTLYLQMNSLKSEDTAMYYCAADLTRCSSNKNDFRYWGQGTQVTVSS	binds
mIL23R VHH5 (VHH) VHH: QVQLQESGGGSVQAGGSLRLSCAASGYTFCMAWFRQAPGKEREGVARFYTRDGYTYYSDSVKGRFTISQNNAKNTLYLQMNSLKSEDTAMYYCAADLARCSSNKNDFRYWGQGTQVTVSS	binds
mIL23R VHH29 (VHH) VHH: QVQLQESGGGLVQPGGSLRLSCAASGFTFSTSAMTWVRQAPGKGLDWVSGIDSGGTTVYADSVKGRFTISKDNAKNTLYLQMNSLKTEDTAVYYCATGLPWGNTWRTRGQGTQVTVSS	binds
mIL23R VHH14 (VHH) VHH: QVQLQESGGGLVQPGGSLRLSCAASGFTFRTSAMTWVRQAPGKGLDWVSGIDSGGTTVYADSVKGRFTISRDSAKNTLYLQMNSLKTEDTAVYYCAMGLPWGNTWRTRGQGTQVTVSS	binds
mIL23R VHH7 (VHH) VHH: QVQLQESGGGLVQPGGSLRLSCAASGFTFSRSAMTWVRQAPGKGLDWVSGIDSGGTTVYADSVKGRFTISRDSAKNTLYLQMNSLKTEDTAVYYCAIGLPWGNTWRTRGQGTQVTVSS	binds
mIL23R VHH39 (VHH) VHH: QVQLQESGGGLVQPGGSLRLSCAASGFTFSRSAMTWVRQAPGKGLDWVSGIDSGGTTVYADSVKGRFTISRDSAKNTLYLQMNGLKTEDTAVYYCAIGLPWGNTWRTRGQGTQVTVSS	binds
mIL23R VHH20 (VHH) VHH: QVQLQESGGGLVQPGGSLRLSCAASGFTFSSSAMTWVRQAPGKGLDWVSGIDSGGTTVYADSVKGRATILKDNAKNTLYLQMNSLKTEDTAVYYCATGLPWGNTWRTRGQGTQVTVSS	binds
mIL23R VHH33 (VHH) VHH: QVQLQESGGGLVQPGGSLRLSCTTSGFTFSSSAMTWVRQAPGKGLDWVSGIDSGGTTVYADSVKGRFTISKDNAKNTLYLQMNSLKTEDTAVYYCATGLPWGNTWRTTGQGTQVTVSS	binds
mIL23R VHH38 (VHH) VHH: QVQLQESGGGLVQPGGSLRLSCAASGFTFSTSAMTWVRQAPGKGLDWVSGIDSGGTTVYADSVKGRFTISKDNAKNTLYLQMNSLKTEDTAVYYCATGLPWGNIWRTRGQGTQVTVSS	binds
mIL23R VHH35 (VHH) VHH: QVQLQESGGGLVQPGGSLRLACSASGFTFSSSAMTWVRQAPGKGLDWVSGIDSGGTTVYADSVKGRATILKDNAKNTLYLQMNSLKTEDTAVYYCATGLPWGNTWRTRGQGTQVTVSS	binds
mIL23R VHH32 (VHH) VHH: QVQLQESGGGLVRPGGSLRLSCAASGFTFSRSAMTWVRQAPGKGLDWVSGIDSGGTTVYADSVKGRFTISRDSAKNTLYLQMNSLKTEDTAVYYCAIGLPWGNTWRTRGQGTQVTVSS	binds
mIL23R VHH37 (VHH) VHH: QVQLQESGGGLVQPGGSLRLSCATSGFTFSSGAMTWVRQAPGKGLDWVSGIDSGGTTVYADSVKGRFTISKDNAKNTLYLQMNSLKTEDTAVYYCATGLPWGNTWRTTGQGTQVTVSS	binds

Continued, values first:

binding result	Binder
binds	mIL23R VHH21 (VHH) VHH: QVQLQESGGGLVQPGGSLRLSCATSGFTFSSSAMTWVRQAPGKGLDWVSGIDSGGTTVYADSVKGRFTISKDNAKNTLYLQMNSLKTEDTAVYYCATGLPWGNTWRTTGQGTQVTVSS
binds	mIL23R VHH13 (VHH) VHH: QVQLQESGGGLVQPGGSLRLSCATSGFTFRLAAMRWVRQAPGKGLEWVSGIDSRGSTIYADSVKGRFTISKDNAKNTLYLQLNSLKTEDTAMYYCAQGVYGDTYSGSQGTQVTVSS
binds	mIL23R VHH40 (VHH) VHH: QVQLQESGGGLVQPGGSLRLSCAASGFTFRLTAMRWVRQAPGKGLEWVSGIDSRGSTIYADSVKGRFTISKDNAKNTLYLQLNSLKSEDTAMYYCAQGVYGDTYSGSQGTQVTVSS
binds	mIL23R VHH34 (VHH) VHH: QVQLQESGGGLVQPGGSLRLSCAASGFTFRLTAMRWVRQAPGKGLEWVSGIDSRGSTIYADSVKGRFTISKDNAKNTLYLQLNSLKTEDTAMYYCAQGVYGDTHSGSQGTQVTVSS
binds	mIL23R VHH46 (VHH) VHH: QVQLQESGGGLVQPGGSLRLSCAASGFTFRLSAMRWVRQAPGKGLEWVSGIDSRGSTIYADSVKGRFTISKDDAKNTLYLQLNSLKTEDTAMYYCAQGVYGDTYSGSQGTQVTVSS
binds	mIL23R VHH23 (VHH) VHH: QVQLQESGGGLVQPGGSLRLSCAASGFNFRLYAMRWVRQAPGKGVEWVSGIDSGGSTIYADSVKGRFTISKDNAKNTLYLQLNSLKTEDTAMYYCAQGVYGDTYSGSQGTQVTVSS
binds	mIL23R VHH30 (VHH) VHH: QVQLQESGGGLVQPGGSLRLSCAASGFTFRLTAMRWVRQAPGKGLEWVSGIDSRGSTIYADSVKGRFTISKDNAKNTLYLQLNSLKTEDTAMYYCAQGVYGDTYSGSLGTQVTVSS
binds	mIL23R VHH31 (VHH) VHH: QVQLQESGGGLVQPGGSLRLSCAASGFTFRLTAMRWVRQAPGKGLEWVSGIDSRGSTIYADSVKGRFTISRDNAKNTLYLQLNSLKTEDTAMYYCAQGVYGDTYSGSQGTQVTVSS
binds	mIL23R VHH42 (VHH) VHH: QVQLQESGGGLVQPGGSLRLSCAASGFTFSNYAMRWVRQAPGKGLEWVSGIDSRGSTIYADSVKGRFTISKDNAKNTLYLQLNSLKTEDTAMYYCAQGVYGDTYSGSQGTQVTVSS
binds	mIL23R VHH17 (VHH) VHH: QVQLQESGGGSVQAGGSLRLSCAASGFTFRLTAMRWVRQAPGKGLEWVSGIDSRGSTIYADSVKGRFTISKDNAKNTLYLQLNSLKTEDTAMYYCAQGVYGDTYSGSQGTQVTVSS
binds	mIL23R VHH28 (VHH) VHH: QVQLQESGGGLVQPGGSLRLSCAASGFTFRLTAMRWVRQAPGKGLEWVSGIDSRGSTIYADSVKGRFTISRDNAKNTLYLQLNSLKTEDAAMYYCAQGVYGDTYSGSQGTQVTVSS
binds	mIL23R VHH19 (VHH) VHH: QVQLQESGGGLVQPGGSLRLSCAASGFTFRLSAMRWVRQAPGKGLEWVSGIDSRGSTIYADSVKGRFTISKDNAKNTLYLQLNSLKTEDTAMYYCAQGVYGDTYSGSQGTQVTVSS
binds	mIL23R VHH45 (VHH) VHH: QVQLQESGGGLVQPGGSLRLSCAASGFTFRLSAMRWVRQAPGKGLEWVSGIDSRGSTIYADSVEGRFTISKDNAKNTLYLQLNSLKTEDTAMYYCAQGVYGDTYSGSQGTQVTVSS
binds	mIL23R VHH44 (VHH) VHH: QVQLQESGGGLVQPGGSLRLSCAASGFTFRLSAMRWVRQAPGKGFEWVSGIDSRGSTIYADSVKGRFTISKDNAKNTLYLQLNSLKTEDTAMYYCAQGVYGDTYSGSQGTQVTVSS
binds	mIL23R VHH3 (VHH) VHH: QVQLQESGGGSVQAGGSLRLSCTASVNTYCEYNMSWYRQAPGKEREFVSGVDSDGSTRYSESVKGRFTISQDNAKNTMYLQMNGLKPEDTAMYYCKTYVCTFCSGNSCYYEYKYYYEGQGTQVTVSS
binds	mIL23R VHH4 (VHH) VHH: QVQLQESGGGSVQAGGSLRLSCAASGYTYSNNCMGWFRQAPGKDRERIANIYTGGGRTTYADSVKGRFTISQDSAKSTVYLQMNSLKPEDTAMYYCAAGSCGSARSEYSYWGQGTQVTVSS
